Patent publication US20150291693A1 (FRAUNHOFER GESELLSCHAFT ZUR FORDERUNG DER ANGEWANDTEN …, published 2015)

T1: CD30 (human, UniProt P28908 19-595)
T1 sequence (looked up): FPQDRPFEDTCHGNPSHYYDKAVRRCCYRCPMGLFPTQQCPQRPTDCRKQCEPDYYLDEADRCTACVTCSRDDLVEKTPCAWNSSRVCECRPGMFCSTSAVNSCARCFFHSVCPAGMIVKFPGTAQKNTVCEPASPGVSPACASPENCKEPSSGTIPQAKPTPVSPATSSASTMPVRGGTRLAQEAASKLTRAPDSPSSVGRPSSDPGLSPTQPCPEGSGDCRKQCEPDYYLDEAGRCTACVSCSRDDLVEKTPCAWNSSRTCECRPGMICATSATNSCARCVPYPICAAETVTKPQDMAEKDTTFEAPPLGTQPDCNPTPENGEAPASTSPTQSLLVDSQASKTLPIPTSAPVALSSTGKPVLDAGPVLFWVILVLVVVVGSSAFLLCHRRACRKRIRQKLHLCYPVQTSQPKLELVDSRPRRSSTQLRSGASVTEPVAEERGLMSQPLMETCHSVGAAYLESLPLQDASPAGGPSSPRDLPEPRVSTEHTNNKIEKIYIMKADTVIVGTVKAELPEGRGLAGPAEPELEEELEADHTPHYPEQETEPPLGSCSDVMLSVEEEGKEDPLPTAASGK

B1: Gm-H22(scFv) (other)
chain: IIGGREVIPHSRPYMASLQRNGSHLCGGVLVHPKWVLTAAHCLAQRMAQLRLVLGLHTLDSPGLTFHIKAAIQHPRYKPVPALENDLALLQLDGKVKPSRTIRPLALPSKRQVVAAGTRCSMAGWGLTHQGGRLSRVLRELDLQVLDTRMCNNSRFWNGSLSPSMVCLAADSKDQAPCKGDSGGPLVCGKGRVLAGVLSFSSRVCTDIFKPPVATAVAPYVSWIRKVTGRSAAEHEGDAAQPAMAQVQLVESGGGVVQPGRSLRLSCSSSGFIFSDNYMYWVRQAPGKGLEWVATISDGGSYTYYPDSVKGRFTISRDNSKNTLFLQMDSLRPEDTGVYFCARGYYRYEGAMDYWGQGTPVTVSSGGGGSGGGGSGGGGSDIQLTQSPSSLSASVGDRVTITCKSSQSVLYSSNQKNYLAWYQQKPGKAPKLLIYWASTRESGVPSRFSGSGSGTDFTFTISSLQPEDIATYYCHQYLSSWTFGQGTKLEIK
B2: Gm-Ki4(scFv) (other)
chain: IIGGREVIPHSRPYMASLQRNGSHLCGGVLVHPKWVLTAAHCLAQRMAQLRLVLGLHTLDSPGLTFHIKAAIQHPRYKPVPALENDLALLQLDGKVKPSRTIRPLALPSKRQVVAAGTRCSMAGWGLTHQGGRLSRVLRELDLQVLDTRMCNNSRFWNGSLSPSMVCLAADSKDQAPCKGDSGGPLVCGKGRVLAGVLSFSSRVCTDIFKPPVATAVAPYVSWIRKVTGRSAAEHEGDAAQPAMAQVKLQESGTELAKPGAAVKMSCKASGYTFTDYWMHWVKQRPGQGLEWIGYINPNTAYTDYNQKFKDKATLTADKSSSTAYMQLRSLTSEDSAVYYCAKKTTQTTWGFPFWGQGTTVTVSSGGGGSGGGGSGGGGSDIVLTQSPKSMAMSVGERVTLSCKASENVDSFVSWYQQKPGQSPKLLIYGASNRYTGVPDRFAGSGSGRDFTLTISSVQAEDLADYHCGQNYRYPLTFGAGTKLEIKR

Legend:
[1] = biological target: CD64 (Fc gamma receptor I) (human, UniProt P12314 16-374); test: cell-based or functional assay
CD30 = biological target: T1, CD30; test: cell-based or functional assay

CD64 (Fc gamma receptor I), sequence (P12314 16-374, form in doubt): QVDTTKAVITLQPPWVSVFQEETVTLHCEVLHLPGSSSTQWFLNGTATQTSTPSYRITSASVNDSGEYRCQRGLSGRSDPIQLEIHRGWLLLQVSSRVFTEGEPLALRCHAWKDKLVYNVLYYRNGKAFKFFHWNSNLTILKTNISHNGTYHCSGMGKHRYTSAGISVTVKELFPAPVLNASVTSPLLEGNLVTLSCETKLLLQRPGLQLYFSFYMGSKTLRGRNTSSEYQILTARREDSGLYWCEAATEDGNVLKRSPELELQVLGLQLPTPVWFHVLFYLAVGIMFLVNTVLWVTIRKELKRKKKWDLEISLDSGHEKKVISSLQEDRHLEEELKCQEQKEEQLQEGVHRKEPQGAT

| Binder | IC50, XTT viability assay on Interferon γ stimulated HL60 cells [1] [nM] | IC50, XTT viability assay on L540 cells (CD30) [nM] |
| --- | --- | --- |
| B1 | 1.2 | – |
| B2 | – | 272 |
